Test results published in paper PMC3219604.

System: OrfAB-GFP GMF101 V179L ((insertion sequence IS2))
Test: EMSA
Details: panel (50- or 87-mer) not stated in material; 20 mM Tris-Cl pH 8.0, 1 mM EDTA, 5 ug/mL calf thymus DNA, 10 nM DNA, 0.11-0.13 uM protein, 30 min at 20 C; gels at 4 C

GGATCCTTAAGTGATAACAGATGTCTGGAAATATAGGGGCAAATCCAGCG (double strand) [IRR 50-mer]
binding signal (binding score (0-5)): 3
